Patent publication US20260258125A1 (NONA BIOSCIENCES SUZHOU, published 2026)
Where a chain is given by its changes, count along the chain named. Values belong to the binder of their own block, whether it stands above or below them.

Legend:
[1] = molecular target: T1, human CEACAM5 on 293T cells (293T-huCEACAM5 cells) (human, UniProt P06731 35-685); assay: cell-based or functional assay
T1 sequence (looked up): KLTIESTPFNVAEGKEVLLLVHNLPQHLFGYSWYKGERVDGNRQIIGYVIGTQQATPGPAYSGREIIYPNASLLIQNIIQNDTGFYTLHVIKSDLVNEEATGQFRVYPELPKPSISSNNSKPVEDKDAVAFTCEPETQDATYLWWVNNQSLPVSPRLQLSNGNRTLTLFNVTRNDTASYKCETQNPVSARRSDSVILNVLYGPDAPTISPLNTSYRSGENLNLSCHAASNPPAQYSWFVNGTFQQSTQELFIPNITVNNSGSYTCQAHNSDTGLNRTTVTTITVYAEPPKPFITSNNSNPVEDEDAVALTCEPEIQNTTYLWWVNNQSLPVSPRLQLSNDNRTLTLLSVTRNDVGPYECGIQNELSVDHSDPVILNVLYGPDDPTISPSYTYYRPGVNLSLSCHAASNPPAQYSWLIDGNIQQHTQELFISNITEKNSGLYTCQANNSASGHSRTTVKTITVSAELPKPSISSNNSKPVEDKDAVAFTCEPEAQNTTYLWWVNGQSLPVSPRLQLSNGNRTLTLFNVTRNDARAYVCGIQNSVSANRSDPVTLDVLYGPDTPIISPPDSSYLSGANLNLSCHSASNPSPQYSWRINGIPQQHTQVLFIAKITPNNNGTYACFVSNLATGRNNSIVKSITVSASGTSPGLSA

[2] = molecular target: T2, human CEACAM6 on 293T cells (293T-huCEACAM6 cells) (human, UniProt P40199 35-320); assay: cell-based or functional assay
T2 sequence (looked up): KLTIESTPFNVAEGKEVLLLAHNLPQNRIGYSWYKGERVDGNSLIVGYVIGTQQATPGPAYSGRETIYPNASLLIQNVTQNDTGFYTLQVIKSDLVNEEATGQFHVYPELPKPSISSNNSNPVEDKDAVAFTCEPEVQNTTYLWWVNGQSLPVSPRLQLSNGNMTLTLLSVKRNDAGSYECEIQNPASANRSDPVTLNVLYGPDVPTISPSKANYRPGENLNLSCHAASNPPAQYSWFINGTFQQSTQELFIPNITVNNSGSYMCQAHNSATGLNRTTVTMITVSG

[3] = molecular target: T2, human CEACAM6 on 293T cells …; assay: flow cytometry on 293T-huCEACAM6 cells with against without 100 nM soluble CEACAM6
human CEACAM8 protein [4] = molecular target: T3, human CEACAM8 protein (human, UniProt P31997 35-320); assay: ELISA, human CEACAM8 protein coated on the plate, anti-human Fc-HRP, OD450
T3 construct: Bought protein; also called huCEACAM8
T3 sequence (looked up): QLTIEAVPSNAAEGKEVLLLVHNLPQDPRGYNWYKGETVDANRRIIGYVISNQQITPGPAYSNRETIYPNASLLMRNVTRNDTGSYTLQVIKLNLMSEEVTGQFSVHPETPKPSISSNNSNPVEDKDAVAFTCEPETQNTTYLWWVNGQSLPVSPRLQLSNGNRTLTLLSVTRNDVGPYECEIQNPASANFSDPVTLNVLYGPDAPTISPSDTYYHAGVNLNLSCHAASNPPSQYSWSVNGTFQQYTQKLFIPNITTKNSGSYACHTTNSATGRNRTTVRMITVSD
From the text: (§1) Binding of recombinant anti-CEACAM5/6 dual-binding monoclonal antibodies against human and cynomolgus CEACAM5, and human CEACAM6 (Uniprot P40199), human CEACAM 1, 3 (NP_001806.2, Sino Biological 11933-H08H) and 8 (NP_001807.2, Acro Bio CE8-H5224) were detected by ELISA. Anti-CEACAM5/6 dual-antibodies were serially diluted in staining buffer (PBS containing 2% FBS). […] ELISA was used to test the binding between antibody containing supernatant or purified antibodies and the antigen. Briefly, the antigens were coated on a 96-well high binding plate overnight at 4° C. The plate was washed with PBST three times, incubated with blocking buffer (2% Bovine Serum Albumin) for one hour at 37° C., washed with PBST three times and incubated with antibody containing supernatant or purified antibodies at desired dilutions or concentrations for one hour at 37° C. A secondary antibody, anti-human Fc-HRP (Jackson Laboratory, 109-035-097) was used for detection of the targeted antibody. TMB and stopping solution were used for detection of HRP signal. The HRP signal was read on a SPECTRAMAX plate reader.

[5] = molecular target: T1, human CEACAM5 on 293T cells …; assay: flow cytometry on 293T-huCEACAM5 cells with against without 100 nM soluble CEACAM5
human CEACAM3 protein [6] = molecular target: T4, human CEACAM3 protein (human, UniProt P40198 35-155); assay: ELISA, human CEACAM3 protein coated on the plate, anti-human Fc-HRP, OD450
T4 construct: Bought protein; also called huCEACAM3
T4 sequence (looked up): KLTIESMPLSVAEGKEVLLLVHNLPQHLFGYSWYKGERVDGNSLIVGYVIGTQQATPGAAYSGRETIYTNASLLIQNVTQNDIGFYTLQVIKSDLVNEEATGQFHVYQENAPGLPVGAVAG
From the text: as §1

human CEACAM8 protein [7] = molecular target: T3, human CEACAM8 protein; assay: ELISA, antigen coated on plate
From the text: as §1

human CEACAM3 protein [8] = molecular target: T4, human CEACAM3 protein; assay: ELISA, antigen coated on plate
From the text: as §1

Internalization of pHAb-dye-labelled antibody, MFI (37° C.-4° C.)/DAR [1]: 11300
Internalization of pHAb-dye-labelled antibody, MFI (37° C.-4° C.)/DAR [2]: 14700
fold change of EC50 at the presence of 100 nM soluble protein [3]: 2.1 fold
binding result (human CEACAM8 protein [4]): no binding (tested: 10 nM)
fold change of EC50 at the presence of 100 nM soluble protein [5]: 4.1 fold
binding result (human CEACAM3 protein [6]): no binding (tested: 100 nM)
B1: PR304294 (antibody, human IgG1, kappa, V domains shown)
VH: EVQLLESGGGLVQPGGSLRLSCAASGFTFSSYAMSWVRQAPGKGLEWVSAISGTTYNTYYAGSVKGRFTISRDNSKNTLYLQMNSLRAEDTAVYYCAKGISVAGYYYYGMDVWGQGTTVTVSS
VL: EIVMTQSPATLSVSPGERATLSCRASQSVISNLAWYQQKPGQAPRLLIYGASTRATGIPARFSGSGSGTEFTLTISSLQSEDFAVYYCHQYNNWPLTFGGGTKVEIKR
notes: Recombinant full antibody

binding result (human CEACAM8 protein [7]): no binding
binding result (human CEACAM3 protein [8]): no binding
B2: PR304171 (antibody, human IgG1, kappa, V domains shown)
VH: not shown
VL: B1 VL with S28N, Y36H, G50T, A51T, H89Q
notes: Recombinant full antibody
